According to paper PMC6171917 (PLoS ONE, 2018):

T1: K5/K14 (mixture or heterodimer of full-length cytokeratins 5 and 14) (UniProt P13647 1-590; P02533 1-472)
T1 construct: cytokeratin 5 (K5), plasmid pET23-K5; cytokeratin 14 (K14), plasmid pET23-K14; Same two recombinant proteins used spotted in 8 M urea (dot blot) and as in vitro assembled filaments (sedimentation assays); also called K5/K14 IFs; K5/K14 filaments; source: mixed for spotting, or heterodimer isolated by anion exchange and assembled into IFs
T1 sequence (looked up) 1: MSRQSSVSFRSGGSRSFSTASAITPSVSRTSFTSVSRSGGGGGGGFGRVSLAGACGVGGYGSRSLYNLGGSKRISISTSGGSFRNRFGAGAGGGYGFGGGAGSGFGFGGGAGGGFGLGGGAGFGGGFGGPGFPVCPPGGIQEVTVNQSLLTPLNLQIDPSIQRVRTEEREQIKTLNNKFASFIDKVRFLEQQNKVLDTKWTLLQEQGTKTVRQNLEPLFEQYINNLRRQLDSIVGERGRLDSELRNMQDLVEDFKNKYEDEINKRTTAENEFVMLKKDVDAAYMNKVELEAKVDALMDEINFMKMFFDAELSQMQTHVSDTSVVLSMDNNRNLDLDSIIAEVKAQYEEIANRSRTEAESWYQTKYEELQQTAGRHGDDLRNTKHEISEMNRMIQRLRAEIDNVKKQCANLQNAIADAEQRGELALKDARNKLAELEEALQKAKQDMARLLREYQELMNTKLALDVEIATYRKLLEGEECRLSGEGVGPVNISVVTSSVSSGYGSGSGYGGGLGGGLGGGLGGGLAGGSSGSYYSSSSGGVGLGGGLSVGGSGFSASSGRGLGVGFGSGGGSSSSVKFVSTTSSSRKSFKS
T1 sequence (looked up) 2: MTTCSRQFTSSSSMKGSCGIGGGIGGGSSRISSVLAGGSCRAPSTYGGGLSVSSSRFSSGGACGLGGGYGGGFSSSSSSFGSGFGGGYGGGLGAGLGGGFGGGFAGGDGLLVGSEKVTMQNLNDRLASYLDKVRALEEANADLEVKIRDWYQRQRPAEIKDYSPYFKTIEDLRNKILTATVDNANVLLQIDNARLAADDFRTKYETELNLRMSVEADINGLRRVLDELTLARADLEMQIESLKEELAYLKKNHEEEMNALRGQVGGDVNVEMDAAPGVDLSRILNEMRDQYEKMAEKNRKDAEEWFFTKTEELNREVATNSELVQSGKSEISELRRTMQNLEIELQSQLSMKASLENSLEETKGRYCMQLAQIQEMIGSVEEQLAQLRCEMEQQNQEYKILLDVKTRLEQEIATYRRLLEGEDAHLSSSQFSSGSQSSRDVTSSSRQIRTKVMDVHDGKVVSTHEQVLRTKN

T2: K5 (cytokeratin 5), purified (UniProt P13647 1-590)
T2 construct: cytokeratin 5 (K5), plasmid pET23-K5; source: E. coli Rosetta pLysS, inclusion bodies, purified (cation exchange, Superdex 200 in 6 M urea)
T2 sequence (looked up): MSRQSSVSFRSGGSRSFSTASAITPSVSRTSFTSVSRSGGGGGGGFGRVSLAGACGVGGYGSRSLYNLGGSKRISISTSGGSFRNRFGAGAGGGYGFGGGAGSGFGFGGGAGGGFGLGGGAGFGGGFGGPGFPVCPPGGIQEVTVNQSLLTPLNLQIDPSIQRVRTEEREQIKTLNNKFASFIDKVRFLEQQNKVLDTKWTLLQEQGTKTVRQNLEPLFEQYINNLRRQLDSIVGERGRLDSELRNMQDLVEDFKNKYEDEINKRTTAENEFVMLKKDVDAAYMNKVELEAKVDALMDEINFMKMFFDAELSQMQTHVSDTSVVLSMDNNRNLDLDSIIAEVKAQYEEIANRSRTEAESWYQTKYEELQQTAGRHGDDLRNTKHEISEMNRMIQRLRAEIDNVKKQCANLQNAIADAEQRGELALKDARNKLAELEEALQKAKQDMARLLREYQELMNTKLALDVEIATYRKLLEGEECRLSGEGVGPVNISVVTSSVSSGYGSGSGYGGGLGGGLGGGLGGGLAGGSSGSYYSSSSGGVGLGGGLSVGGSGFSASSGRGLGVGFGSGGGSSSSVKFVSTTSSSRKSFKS


What was measured:
desmin, full-length = target: T3, desmin, full-length (UniProt P17661 1-470); test: co-sedimentation; FluoBACE on in vitro assembled IFs (25 μg/mL constant); serial dilutions of HEK 293T soluble extract with EGFP-DSP C-terminus (active ≤ 30 nM); 15 min at 4°C (K5/K14 IFs) or 22°C (desmin IFs); 20,000 × g 30 min; fluorescence in supernatant; one site specific binding with Hill slope; apparent Kd; settings: one partner purified
T3 construct: desmin; The desmin fragments are said to be human; also called desmin IFs; source: E. coli, purified following a published protocol [37]; also whole E. coli extract; assembled in vitro into IFs for sedimentation assays

[1] = target: T1, K5/K14 (mixture or heterodimer of …); test: as above; settings: one partner purified
[2] = target: T2, K5 (cytokeratin 5), purified; test: co-sedimentation; K5 and K14 mixed 1.1:1, heterodimer isolated on anion exchanger in 8 M urea, dialyzed against 0.7 mM sodium phosphate pH 7.5, assembly with 20 mM KCl at 37°C 30 min; 20,000 × g 4°C 30 min, pellet and supernatant by SDS-PAGE; settings: both partners purified

T3 sequence (P17661 whole entry, the tested form may be a part): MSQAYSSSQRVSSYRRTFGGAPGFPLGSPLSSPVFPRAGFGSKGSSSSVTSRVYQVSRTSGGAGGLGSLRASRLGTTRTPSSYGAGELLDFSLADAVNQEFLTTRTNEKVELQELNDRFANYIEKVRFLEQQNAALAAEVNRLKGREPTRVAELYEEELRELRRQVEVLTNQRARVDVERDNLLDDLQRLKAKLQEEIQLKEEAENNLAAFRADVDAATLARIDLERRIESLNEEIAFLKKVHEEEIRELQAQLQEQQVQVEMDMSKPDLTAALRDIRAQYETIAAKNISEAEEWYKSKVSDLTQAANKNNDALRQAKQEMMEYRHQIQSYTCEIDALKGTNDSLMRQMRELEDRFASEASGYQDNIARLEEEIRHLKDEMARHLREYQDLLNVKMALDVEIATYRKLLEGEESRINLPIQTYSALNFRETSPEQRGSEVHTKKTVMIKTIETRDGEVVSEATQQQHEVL

Row | Kd (desmin, full-length) | Kd [1] | binding result [2] | Binder
1 | 18 nM | 10 nM | – | EGFP-DSP C-terminus (C-terminus of desmoplakin tagged at the N-terminus with EGFP) (domain or fragment, UniProt P15924-1 2194-2871, looked up, construct previously described [8]; KD curves use the active concentration; source: HEK 293T, transfected (calcium phosphate), soluble fraction of cell lysate; not shown: EGFP, N-terminal, kept) PHTGLLLLSVQKRSMSFQGIRQPVTVTELVDSGILRPSTVNELESGQISYDEVGERIKDFLQGSSCIAGIYNETTKQKLGIYEAMKIGLVRPGTALELLEAQAATGFIVDPVSNLRLPVEEAYKRGLVGIEFKEKLLSAERAVTGYNDPETGNIISLFQAMNKELIEKGHGIRLLEAQIATGGIIDPKESHRLPVDIAYKRGYFNEELSEILSDPSDDTKGFFDPNTEENLTYLQLKERCIKDEETGLCLLPLKEKKKQVQTSQKNTLRKRRVVIVDPETNKEMSVQEAYKKGLIDYETFKELCEQECEWEEITITGSDGSTRVVLVDRKTGSQYDIQDAIDKGLVDRKFFDQYRSGSLSLTQFADMISLKNGVGTSSSMGSGVSDDVFSSSRHESVSKISTISSVRNLTIRSSSFSDTLEESSPIAAIFDTENLEKISITEGIERGIVDSITGQRLLEAQACTGGIIHPTTGQKLSLQDAVSQGVIDQDMATRLKPAQKAFIGFEGVKGKKKMSAAEAVKEKWLPYEAGQRFLEFQYLTGGLVDPEVHGRISTEEAIRKGFIDGRAAQRLQDTSSYAKILTCPKTKLKISYKDAINRSMVEDITGLRLLEAASVSSKGLPSPYNMSSAPGSRSGSRSGSRSGSRSGSRSGSRRGGFDATGNSSYSYSYSFSSSSIGH
2 | – | – | binds | K14 (cytokeratin 14), purified (natural protein, UniProt P02533 1-472, looked up, cytokeratin 14 (K14), plasmid pET23-K14; source: E. coli Rosetta, inclusion bodies, purified (anion exchange, gel filtration in 6 M urea)) MTTCSRQFTSSSSMKGSCGIGGGIGGGSSRISSVLAGGSCRAPSTYGGGLSVSSSRFSSGGACGLGGGYGGGFSSSSSSFGSGFGGGYGGGLGAGLGGGFGGGFAGGDGLLVGSEKVTMQNLNDRLASYLDKVRALEEANADLEVKIRDWYQRQRPAEIKDYSPYFKTIEDLRNKILTATVDNANVLLQIDNARLAADDFRTKYETELNLRMSVEADINGLRRVLDELTLARADLEMQIESLKEELAYLKKNHEEEMNALRGQVGGDVNVEMDAAPGVDLSRILNEMRDQYEKMAEKNRKDAEEWFFTKTEELNREVATNSELVQSGKSEISELRRTMQNLEIELQSQLSMKASLENSLEETKGRYCMQLAQIQEMIGSVEEQLAQLRCEMEQQNQEYKILLDVKTRLEQEIATYRRLLEGEDAHLSSSQFSSGSQSSRDVTSSSRQIRTKVMDVHDGKVVSTHEQVLRTKN
